The target of assay [1] is recombinant ADAM17 (A Disintegrin and Metalloproteinase 17) (UniProt P78536 215-671). Briefly: FRET.
Assay [2] addresses T1, recombinant ADAM10 (A Disintegrin and Metalloproteinase 10) (UniProt O14672 20-748).
T1 chain: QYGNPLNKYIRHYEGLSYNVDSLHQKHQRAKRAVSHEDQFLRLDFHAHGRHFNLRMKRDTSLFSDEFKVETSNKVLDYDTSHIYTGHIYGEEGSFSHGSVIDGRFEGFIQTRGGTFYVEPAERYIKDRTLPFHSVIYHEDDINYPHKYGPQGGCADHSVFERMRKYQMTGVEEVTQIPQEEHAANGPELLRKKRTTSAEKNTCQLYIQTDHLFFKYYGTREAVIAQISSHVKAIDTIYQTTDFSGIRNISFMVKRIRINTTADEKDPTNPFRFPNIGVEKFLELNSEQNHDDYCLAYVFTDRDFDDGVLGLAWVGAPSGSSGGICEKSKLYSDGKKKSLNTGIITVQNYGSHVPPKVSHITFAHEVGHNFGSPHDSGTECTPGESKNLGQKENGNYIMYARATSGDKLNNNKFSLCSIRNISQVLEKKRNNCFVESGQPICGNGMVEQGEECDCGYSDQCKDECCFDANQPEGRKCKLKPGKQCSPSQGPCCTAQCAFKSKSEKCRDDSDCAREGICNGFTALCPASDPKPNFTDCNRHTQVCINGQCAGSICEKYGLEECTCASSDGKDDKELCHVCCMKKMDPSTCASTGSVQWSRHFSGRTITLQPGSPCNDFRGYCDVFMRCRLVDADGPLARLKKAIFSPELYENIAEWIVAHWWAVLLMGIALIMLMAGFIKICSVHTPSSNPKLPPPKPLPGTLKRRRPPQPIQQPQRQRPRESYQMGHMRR
Briefly: FRET.

Ki data for one molecule are collected here from paper PMC4609913 (2015).

recombinant ADAM17 (A Disintegrin and Metalloproteinase 17), sequence (P78536 215-671): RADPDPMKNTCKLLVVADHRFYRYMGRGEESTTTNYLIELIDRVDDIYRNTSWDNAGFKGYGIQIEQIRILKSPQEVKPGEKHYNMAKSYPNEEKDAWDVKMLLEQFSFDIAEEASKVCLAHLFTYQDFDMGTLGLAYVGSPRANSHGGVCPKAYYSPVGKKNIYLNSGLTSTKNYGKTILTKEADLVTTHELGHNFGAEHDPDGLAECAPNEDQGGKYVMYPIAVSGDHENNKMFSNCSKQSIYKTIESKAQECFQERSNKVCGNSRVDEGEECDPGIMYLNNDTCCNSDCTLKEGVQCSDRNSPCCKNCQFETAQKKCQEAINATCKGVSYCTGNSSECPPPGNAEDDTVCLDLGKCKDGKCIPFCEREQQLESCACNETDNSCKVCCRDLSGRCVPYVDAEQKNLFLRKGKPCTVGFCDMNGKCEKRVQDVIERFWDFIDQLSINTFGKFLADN

B1: recombinant His-tagged human ADAM12 prodomain (amino acids 29-206) (domain or fragment)
chain: RGVSLWNQGRADEVVSASVGSGDLWIPVKSFDSKNHPEVLNIRLQRESKELIINLERNEGLIASSFTETHYLQDGTDVSLARNYTVILGHCYYHGHVRGYSDSAVSLSTCSGLRGLIVFENESYVLEPMKSATNRYKLFPAKKLKSVRGSCGSHHNTPNLAAKNVFPPPSQTWARRHK
In the case of B1, the Ki in assay [1] and in assay [2] was > 14 µM each time.

As a reminder, the Ki is a measure of affinity in units of concentration, obtained from inhibition or displacement.
